In paper PMC9801259:

Biological target: OGG1 (UniProt O15527 1-345)
Assay: EMSA

Sequence of OGG1 (O15527 whole entry): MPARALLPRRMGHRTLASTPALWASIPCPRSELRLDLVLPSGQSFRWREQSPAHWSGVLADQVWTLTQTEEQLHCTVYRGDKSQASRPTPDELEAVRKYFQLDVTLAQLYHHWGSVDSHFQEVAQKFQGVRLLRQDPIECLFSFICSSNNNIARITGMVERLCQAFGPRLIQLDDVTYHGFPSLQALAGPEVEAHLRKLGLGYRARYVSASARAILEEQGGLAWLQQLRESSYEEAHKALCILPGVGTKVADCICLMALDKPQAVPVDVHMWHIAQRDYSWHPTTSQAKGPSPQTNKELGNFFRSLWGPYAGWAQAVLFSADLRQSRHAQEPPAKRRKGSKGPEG

B1: 8-oxo(d)Gua and NF-kB motif probe (Cxcl2 promoter) (dsDNA)
DNA 1: TTCCCTGGTCCCCGGGCTTTTCCAGACATCG
DNA 2: CGATGTCTGGAAAAGCCCGGGGACCAGGGAA
modifications: 8-oxo-dG in antisense strand, printed CCAG*GGAA (G after the asterisk, position 28)
B1: binds.
